{
  "source": "paper PMC6684243",
  "biological_target": "N-terminal domain of the HIV-1 capsid protein (HIV-1) (UniProt P12493)",
  "test": "ITC",
  "data": [
    {"substance": "calcium-saturated human calmodulin ((Ca^2+)4-CaM) (from UniProt P0DP23 1-149) (natural protein)", "values": [
      {"measurement": "Kd", "value": 3.73, "unit": "µM"},
      {"measurement": "stoichiometry N", "value": 1}
    ]}
  ]
}
